The target in series [1] is KIF21B-FL-GFP (full-length KIF21B-GFP) (human). Briefly: single-molecule fluorescence intensity analysis (TIRF); GFP-tagged motors moving on MTs, compared with single GFP immobilized, or KIF5B-560-GFP moving, in a separate chamber on the same coverslip; 15 µM tubulin, 20 nM mCherry-EB3, MRB80 with 50 mM KCl, 30°C.
For series [2] the target is unchanged. Kind of series: single-molecule fluorescence intensity and photobleaching-step analysis (TIRF); purified GFP fusions diluted in PBS and immobilized on plasma-cleaned coverslips, room temperature; compared with monomeric GFP and dimeric GFP-EB3.
For series [3], the target named is KIF21B-FL-ΔrCC-GFP (human). The description is as above.
Series [4] deals with KIF21B-MD-CC1-GFP (purified) (human). Kind of series: single-molecule fluorescence intensity analysis (TIRF); GFP-tagged motors moving on MTs, compared with single GFP immobilized, or KIF5B-560-GFP moving, in a separate chamber on the same coverslip; 15 µM tubulin, 20 nM mCherry-EB3, MRB80 with 50 mM KCl, 30°C.
For series [5] the target is unchanged. Briefly: single-molecule fluorescence intensity and photobleaching-step analysis (TIRF); purified GFP fusions diluted in PBS and immobilized on plasma-cleaned coverslips, room temperature; compared with monomeric GFP and dimeric GFP-EB3.
Series [6] has as its target KIF21B-MD-CCΔrCC-GFP (human). The series is described as above.
Series [7] concerns the molecule itself. Briefly: single-molecule fluorescence intensity analysis (TIRF); GFP-tagged motors moving on MTs, compared with single GFP immobilized, or KIF5B-560-GFP moving, in a separate chamber on the same coverslip; 15 µM tubulin, 20 nM mCherry-EB3, MRB80 with 50 mM KCl, 30°C.

The text below walks through data of PMC5383399, “Kinesin-4 KIF21B is a potent microtubule pausing factor” (eLife, 2017).

As for “KIF21B-FL-GFP (full-length KIF21B-GFP) (natural protein)”, the stoichiometry N in series [1] and in series [2] was 2 in each case.

KIF21B-FL-ΔrCC-GFP (natural protein) registered a stoichiometry N in series [3] of 2.

In series [4], “KIF21B-MD-CC1-GFP (purified) (domain or fragment)” came in with a fluorescence intensity relative to single monomeric GFP of 1.8 fold. Besides, the stoichiometry N in series [5] stood at 2.

With “KIF21B-MD-CCΔrCC-GFP (domain or fragment)”, the stoichiometry N in series [6] came out at 2.

B1: KIF5B-560-GFP (domain or fragment, UniProt P33176 1-560, looked up)
chain: MADLAECNIKVMCRFRPLNESEVNRGDKYIAKFQGEDTVVIASKPYAFDRVFQSSTSQEQVYNDCAKKIVKDVLEGYNGTIFAYGQTSSGKTHTMEGKLHDPEGMGIIPRIVQDIFNYIYSMDENLEFHIKVSYFEIYLDKIRDLLDVSKTNLSVHEDKNRVPYVKGCTERFVCSPDEVMDTIDEGKSNRHVAVTNMNEHSSRSHSIFLINVKQENTQTEQKLSGKLYLVDLAGSEKVSKTGAEGAVLDEAKNINKSLSALGNVISALAEGSTYVPYRDSKMTRILQDSLGGNCRTTIVICCSPSSYNESETKSTLLFGQRAKTIKNTVCVNVELTAEQWKKKYEKEKEKNKILRNTIQWLENELNRWRNGETVPIDEQFDKEKANLEAFTVDKDITLTNDKPATAIGVIGNFTDAERRKCEEEIAKLYKQLDDKDEEINQQSQLVEKLKTQMLDQEELLASTRRDQDNMQAELNRLQAENDASKEEVKEVLQALEELAVNYDQKSQEVEDKTKEYELLSDELNQKSATLASIDAELQKLKEMTNHQKKRAAEMMASLLK
notes: KIF5B (kinesin-1), residues 1–560; also called N-terminal fragment of kinesin-1, KIF5B residues 1–560; not shown: GFP, C-terminal, kept
As for B1, in series [7], the “fluorescence intensity relative to single monomeric GFP” value was ~1.8 fold and the “stoichiometry N” value is 2.
